Legend:
[1] = target: T1, alpha-synuclein monomer (human, UniProt P37840 1-140); assay: DNase I footprinting
[2] = target: T1, alpha-synuclein monomer; assay: EIS
[3] = target: beta-synuclein (UniProt Q16143 1-134); assay: MST
[4] = target: gamma-synuclein (UniProt O76070 1-127); assay: MST
gamma-synuclein, sequence (O76070 whole entry): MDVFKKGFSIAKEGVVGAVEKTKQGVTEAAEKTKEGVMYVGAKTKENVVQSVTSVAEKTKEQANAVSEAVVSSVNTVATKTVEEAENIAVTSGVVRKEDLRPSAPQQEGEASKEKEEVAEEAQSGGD

beta-synuclein, sequence (Q16143 whole entry): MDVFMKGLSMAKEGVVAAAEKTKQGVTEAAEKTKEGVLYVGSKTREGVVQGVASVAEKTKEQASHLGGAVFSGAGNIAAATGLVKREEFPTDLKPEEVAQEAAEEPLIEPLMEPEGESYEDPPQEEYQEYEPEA

B1: a-syn-1 (5'-fluorescein) (ssDNA)
DNA: ATAGTCCCATCATTCATTGTAAGGAAACGCTACGGGGTGGGTACGGCAAGATATTAGCAAGTGTCA
- Kd [1]: 28 ± 14 nM

B2: a-syn-1 (thiol, on gold electrode) (ssDNA)
DNA: B1 DNA
modifications: thiol (end not stated), immobilized on gold
- Kd [2]: 70 ± 3 nM

B3: a-syn-1 (5'-Cy5) (ssDNA)
DNA: B1 DNA
- binding result [3]: no binding
- binding result [4]: no binding
